# Results: US20030138440A1 (published 2003)
# Ends that are not written are not given here.
# Target: ICAM-1 on HeLa cells (human) (UniProt P05362)
# Assay: cell-based or functional assay
# ICAM-1 on HeLa cells (human), sequence (P05362 28-532): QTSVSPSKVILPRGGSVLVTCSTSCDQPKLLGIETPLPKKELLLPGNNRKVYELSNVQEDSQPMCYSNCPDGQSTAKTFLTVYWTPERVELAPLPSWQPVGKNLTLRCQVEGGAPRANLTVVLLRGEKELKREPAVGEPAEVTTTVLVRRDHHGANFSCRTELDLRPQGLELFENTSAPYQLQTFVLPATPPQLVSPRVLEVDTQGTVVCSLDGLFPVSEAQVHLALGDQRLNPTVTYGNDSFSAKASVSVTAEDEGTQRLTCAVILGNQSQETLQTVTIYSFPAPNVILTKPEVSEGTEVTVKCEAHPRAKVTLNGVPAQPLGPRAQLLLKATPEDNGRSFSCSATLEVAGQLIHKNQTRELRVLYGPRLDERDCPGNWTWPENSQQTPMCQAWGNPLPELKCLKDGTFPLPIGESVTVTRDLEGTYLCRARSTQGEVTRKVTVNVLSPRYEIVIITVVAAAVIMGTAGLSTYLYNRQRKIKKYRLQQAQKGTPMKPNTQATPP
row,Molecule,"EC50, protection of HeLa cells from HRV15 infection [µM]"
1,anti-ICAM-1 monoclonal antibody RR/1 (Chemicon),> 0.01

# Target: the molecule itself
# Assay: self-association of the chimeric protein; size exclusion HPLC
# Experimental: By correlation with sedimentation velocity data, the multimerization state of additional ATFα-based domains was determined by size exclusion HPLC. HPLC size exclusion chromatography was performed on a column selected to resolve species of chimeric multimers ranging from dimers through pentamers. The selected column also resolved species including the Fab moiety of the chimera: Tetramers (6.5S by ultracentrifugation) consistently eluted from the column at 13.7±0.1 min.; trimers (5.5S) eluted at 14.0±0.1; and dimers (4.5S) eluted at 15.0±0.1 min. Data on additional domains is listed in Table 7 along with those determined by sedimentation.
row,Molecule,binding result
1,"LKSIENRLAVIENQLKTIIEELKTIKDLLSN (other, not shown: large carriers, also: chimeric fusion protein, fusion partner and linker not given here, copies left open) [chimeric fusion protein with the ATF-1-LI domain]",binds
2,"LMSIEKKLEEITQTLMQIQNELSMIKNELAQ (other, not shown: large carriers, also: chimeric fusion protein, fusion partner and linker not given here, also called CREB-LI) [chimeric fusion protein with the CREB-Pa-LI domain]",binds
3,"IMSLEKKIEELTQTIMQLQNEISMLKNEIAQ (other, not shown: large carriers, also: domain of chimeric fusion protein, fusion partner and linker not given here, also called CREB-IL) [chimeric fusion protein with the CREB-Pa-IL domain]",binds
4,"IKSLENRIAVLENQIKTLIEEIKTLKDLISN (other, not shown: large carriers, also: domain of chimeric fusion protein, fusion partner and linker not given here) [chimeric fusion protein with the ATF-1-IL domain]",binds
5,"LKSLENRLAVLENQLKTLIEELKTLKDLLSN (other, not shown: large carriers, also: domain of chimeric fusion protein, fusion partner and linker not given here) [chimeric fusion protein with the ATF-1-LL domain]",binds
6,"LMSLEKKLEELTQTLMQLQNELSMLKNELAQ (other, not shown: large carriers, also: domain of chimeric fusion protein, fusion partner and linker not given here, also called CREB-LL) [chimeric fusion protein with the CREB-Pa-LL domain]",binds
7,"IKSIENRIAVIENQIKTIIEEIKTIKDLISN (other, not shown: large carriers, also: domain of chimeric fusion protein, fusion partner and linker not given here) [chimeric fusion protein with the ATF-1-II domain]",binds
8,"IARLEEKIKTLKAQISELASTINMLREQIAQ (other, not shown: large carriers, also: domain of chimeric fusion protein, fusion partner and linker not given here) [chimeric fusion protein with the CJUN-IL domain]",binds
9,"LARLEEKLKTLKAQLSELASTLNMLREQLAQ (other, not shown: large carriers, also: domain of chimeric fusion protein, fusion partner and linker not given here) [chimeric fusion protein with the CJUN-LL domain]",binds
10,"LQSIEKKLEDISSLLGQIQSELTLIRNELAQ (other, not shown: large carriers, also: domain of chimeric fusion protein, fusion partner and linker not given here) [chimeric fusion protein with the ATF2-LI domain]",binds
11,"LQSLEKKLEDLSSLLGQLQSELTLLRNELAQ (other, not shown: large carriers, also: domain of chimeric fusion protein, fusion partner and linker not given here) [chimeric fusion protein with the ATF2-LL domain]",binds
12,"IQSLEKKIEDLSSLIGQLQSEITLLRNEIAQ (other, not shown: large carriers, also: domain of chimeric fusion protein, fusion partner and linker not given here) [chimeric fusion protein with the ATF2-IL domain]",binds
13,"LSRIEEKLKTIKSQLTEIASTLSLIREQLAQ (other, not shown: large carriers, also: domain of chimeric fusion protein, fusion partner and linker not given here) [chimeric fusion protein with the JUN-D-LI domain]",binds
14,"LSRLEEKLKTLKSQLTELASTLSLLREQLAQ (other, not shown: large carriers, also: domain of chimeric fusion protein, fusion partner and linker not given here) [chimeric fusion protein with the JUN-D-LL domain]",binds
15,"LARIEEKLKTIKAQLSEIASTLNMIREQLAQ (other, not shown: large carriers, also: domain of chimeric fusion protein, fusion partner and linker not given here) [chimeric fusion protein with the CJUN-LI domain]",binds
